# From publication doi:10.1101/2020.10.01.322081
# Values joined by “and” are separate entries in the source; they are usually repeats but may differ in a detail not shown here. Equal values may be shown once. Read-outs that look alike come from different tables or passages of the source.
# Legend:
# [1] = target: HIV-1 Gag polyprotein in the immature Gag lattice of purified virus particles (HIV-1); experiment: cryo-EM structure
# [2] = target: HIV-1 Gag polyprotein in the immature Gag lattice of purified virus particles (HIV-1); experiment: cryo-EM structure; remark: listed apart in the source
substance,measurement,setting,value
HIV-1 Gag polyprotein in the immature Gag lattice of purified virus particles (natural protein),stoichiometry N,[1],3 and 5
same,stoichiometry N,[2],2
